We go through one molecule from article PMC13546301, “Ternary Neurexin-T178-PTPR complexes represent a pre-synaptic core-module of neuronal synapse organization” (Nature Communications, 2026).

The target in the assay is T1, V5-tagged PTPRS (UniProt B0V2N1 30-1907).
T1 construct: Receptor-type tyrosine-protein phosphatase S; cDNA GenBank BC083188.1; also called PTPRSV5; source: tsA201 cells, transfected, CL-91-solubilised membrane fraction; not shown: V5, C-terminal, kept
Briefly: affinity purification with mass spectrometry; anti-V5 APs from tsA201 cells expressing NRX1A and PTPRS-V5 with or without T178B; normalized abundance of NRX1A by MS, two independent APs with two controls. As to conditions: partners not purified.

T1 sequence (B0V2N1 30-1907): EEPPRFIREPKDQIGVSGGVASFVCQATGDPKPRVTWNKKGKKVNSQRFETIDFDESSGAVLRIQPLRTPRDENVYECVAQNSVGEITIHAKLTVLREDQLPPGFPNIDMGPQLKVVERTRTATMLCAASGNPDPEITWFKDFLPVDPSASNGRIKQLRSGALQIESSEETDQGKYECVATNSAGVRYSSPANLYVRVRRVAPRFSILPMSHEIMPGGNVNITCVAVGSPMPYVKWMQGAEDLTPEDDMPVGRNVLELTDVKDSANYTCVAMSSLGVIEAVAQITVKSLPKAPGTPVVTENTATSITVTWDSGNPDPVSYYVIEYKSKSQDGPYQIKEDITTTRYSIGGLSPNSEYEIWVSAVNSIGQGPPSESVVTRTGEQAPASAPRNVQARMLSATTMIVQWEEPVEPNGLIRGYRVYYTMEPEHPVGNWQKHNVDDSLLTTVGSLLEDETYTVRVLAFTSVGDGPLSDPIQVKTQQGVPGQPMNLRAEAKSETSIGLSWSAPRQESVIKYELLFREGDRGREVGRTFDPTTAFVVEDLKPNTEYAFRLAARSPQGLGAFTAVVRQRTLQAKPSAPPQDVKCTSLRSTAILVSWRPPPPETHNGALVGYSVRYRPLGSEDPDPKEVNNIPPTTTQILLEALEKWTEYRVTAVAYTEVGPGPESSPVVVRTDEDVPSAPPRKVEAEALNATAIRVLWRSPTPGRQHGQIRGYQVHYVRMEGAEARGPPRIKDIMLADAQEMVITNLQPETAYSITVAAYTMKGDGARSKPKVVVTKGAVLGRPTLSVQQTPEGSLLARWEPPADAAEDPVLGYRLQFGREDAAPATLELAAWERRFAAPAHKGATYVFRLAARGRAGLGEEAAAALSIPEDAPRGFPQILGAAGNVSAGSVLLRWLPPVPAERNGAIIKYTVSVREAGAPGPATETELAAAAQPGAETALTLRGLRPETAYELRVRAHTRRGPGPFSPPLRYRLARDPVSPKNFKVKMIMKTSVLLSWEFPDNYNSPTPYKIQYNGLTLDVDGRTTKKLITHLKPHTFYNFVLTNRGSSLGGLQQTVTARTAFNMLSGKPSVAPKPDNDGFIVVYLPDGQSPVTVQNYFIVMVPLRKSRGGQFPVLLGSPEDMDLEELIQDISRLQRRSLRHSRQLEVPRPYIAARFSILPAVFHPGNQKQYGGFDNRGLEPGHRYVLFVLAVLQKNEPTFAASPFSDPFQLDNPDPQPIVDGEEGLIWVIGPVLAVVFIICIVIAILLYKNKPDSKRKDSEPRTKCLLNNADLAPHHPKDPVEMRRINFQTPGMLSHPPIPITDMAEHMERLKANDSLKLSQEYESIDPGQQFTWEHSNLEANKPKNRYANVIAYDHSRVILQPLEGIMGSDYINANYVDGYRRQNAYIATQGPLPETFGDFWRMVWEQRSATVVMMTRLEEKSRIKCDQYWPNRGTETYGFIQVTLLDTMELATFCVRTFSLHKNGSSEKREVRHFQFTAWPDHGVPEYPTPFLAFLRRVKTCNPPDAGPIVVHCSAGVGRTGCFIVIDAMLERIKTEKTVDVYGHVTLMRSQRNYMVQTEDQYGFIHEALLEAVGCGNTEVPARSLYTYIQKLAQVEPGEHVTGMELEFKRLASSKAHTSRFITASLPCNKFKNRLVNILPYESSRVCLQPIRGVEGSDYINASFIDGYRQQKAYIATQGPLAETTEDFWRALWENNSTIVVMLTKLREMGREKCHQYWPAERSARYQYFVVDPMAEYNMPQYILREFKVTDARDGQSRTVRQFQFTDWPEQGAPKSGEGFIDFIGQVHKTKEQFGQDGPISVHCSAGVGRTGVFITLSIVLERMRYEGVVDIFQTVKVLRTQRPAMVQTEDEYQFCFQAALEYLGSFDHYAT

B1: HA-tagged NRX1A (natural protein)
chain: not shown
notes: Neurexin-1-alpha; in pCAG, from Addgene (#58622); also called NRX1A-HA; source: tsA201 cells, transfected, CL-91-solubilised membrane fraction
B1: the “fold increase of the interaction with T178B against pairwise expression without T178B” value was found to be 10 fold.
